Measurements as given in patent publication US20240279281A1, “Peptide Inhibitors of Interleukin-23 Receptor” (Janssen Pharmaceutica NV, priority 2023, published 2024).
Starred links: 1 amine or outer side, 2 acyl side, 3 side chain; linkers in the order of their positions; H or OH if unused. Positions of bridges follow the written chain, without caps; N, C: chain ends. Non-standard residues stand in square brackets, D forms with d. 2Nal6(Ph4(NMorph)) = 2-amino-3-(6-(4-morpholinophenyl)naphthalen-2-yl)propanoic acid, O=C([C@H](Cc1ccc2cc(-c3ccc(N4CCOCC4)cc3)ccc2c1)N[*:1])[*:2]; TMAPF = 5-(4-(2-amino-2-carboxyethyl)phenoxy)-N,N,N-trimethylpentan-1-aminium, C[N+](C)(C)CCCCCOc1ccc(C[C@H](N[*:1])C(=O)[*:2])cc1; 6Br2Nal = 2-amino-3-(6-bromonaphthalen-2-yl)propanoic acid, O=C([C@H](Cc1ccc2cc(Br)ccc2c1)N[*:1])[*:2]; 6F2Nal = 2-amino-3-(6-fluoronaphthalen-2-yl)propanoic acid, O=C([C@H](Cc1ccc2cc(F)ccc2c1)N[*:1])[*:2]; Trp(7-(3-AcNH-Ph)) = CC(=O)Nc1cccc(-c2cccc3c(C[C@H](N)C(=O)O)c[nH]c23)c1; 2Nal(6-OH) = N[C@@H](Cc1ccc2cc(O)ccc2c1)C(=O)O; Trp(7-Me) = Cc1cccc2c(C[C@H](N)C(=O)O)c[nH]c12; AEF = NCCOc1ccc(C[C@H](N)C(=O)O)cc1; 3Pal = N[C@@H](Cc1cccnc1)C(=O)O; NMecPEG3a = not defined here; Pen = CC(C)(S)[C@H](N)C(=O)O; Thp = NC1(C(=O)O)CCOCC1; Sar = CNCC(=O)O

B1: SEQ ID NO: 319 (peptide)
peptide: cPEG3aCO-[Pen]NT[Trp(7-Me)]K(NMecPEG3a)[Pen][AEF][2Nal(6-OH)][Thp]EN[3Pal][Sar]-NH2
modifications: disulfide 1-6 (inferred); not fully specified; printed as cPEG3aCO-Pen(3)-N-T-7MeW-K(NMecPEG3a)-Pen(3)-AEF-6OH2Nal-THP-E-N-3Pya-Sar-CONH2; reading uncertain
B2: SEQ ID NO: 349 (peptide)
peptide: Ac-X[Pen]NT[Trp(7-Me)]K(Ac)[Pen][AEF][2Nal(6-OH)][Thp]EN[3Pal][Sar]-NH2
modifications: disulfide 2-7 (inferred); not fully specified (residue 1); printed as MeCO-k(d)-Pen(3)-N-T-7MeW-K(Ac)-Pen(3)-AEF-6OH2Nal-THP-E-N-3Pya-Sar-CONH2

Target: T1, interleukin-23 receptor (IL-23R) (UniProt Q5VWK5 24-629, limits assumed)
T1 sequence (looked up): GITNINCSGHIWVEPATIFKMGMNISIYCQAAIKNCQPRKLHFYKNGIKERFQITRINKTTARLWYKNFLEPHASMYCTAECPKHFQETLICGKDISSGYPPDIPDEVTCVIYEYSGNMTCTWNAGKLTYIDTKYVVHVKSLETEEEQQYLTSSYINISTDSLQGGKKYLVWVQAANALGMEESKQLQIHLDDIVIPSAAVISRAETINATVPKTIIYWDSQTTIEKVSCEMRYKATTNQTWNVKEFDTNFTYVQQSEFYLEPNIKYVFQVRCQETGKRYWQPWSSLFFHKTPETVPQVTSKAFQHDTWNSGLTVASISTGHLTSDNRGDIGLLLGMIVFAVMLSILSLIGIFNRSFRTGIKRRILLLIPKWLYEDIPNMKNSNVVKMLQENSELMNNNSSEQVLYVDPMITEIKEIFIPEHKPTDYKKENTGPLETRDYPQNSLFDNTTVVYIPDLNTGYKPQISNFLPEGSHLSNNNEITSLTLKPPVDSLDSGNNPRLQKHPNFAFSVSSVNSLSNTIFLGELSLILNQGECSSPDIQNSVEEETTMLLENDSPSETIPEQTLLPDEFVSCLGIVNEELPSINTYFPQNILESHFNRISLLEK
Assay: cell-based or functional assay

Binder	IL23R Reporter Assay IC50 [nM]
Ac-[dR][Pen]NT[Trp(7-Me)]K(Ac)[Pen][AEF][6F2Nal][Thp]EN[3Pal][Sar]-NH2 (disulfide 2-7 (inferred)) [SEQ ID NO: 407]	< 10
B1	< 10
Ac-[dR][Pen]NT[Trp(7-Me)]K(Ac)[Pen][AEF][6Br2Nal][Thp]EN[Thp]-NH2 (disulfide 2-7 (inferred)) [SEQ ID NO: 444]	≥ 100
Ac-[dR][Pen]NT[Trp(7-Me)]K(Ac)[Pen][AEF][2Nal6(Ph4(NMorph))][Thp]EN[Thp]-NH2 (disulfide 2-7 (inferred)) [SEQ ID NO: 432]	≥ 100
Ac-[dR][Pen]NT[Trp(7-Me)]K(Ac)[Pen][TMAPF][2Nal(6-OH)][Thp]EN[3Pal][Sar]-NH2 (disulfide 2-7 (inferred)) [SEQ ID NO: 59]	< 10
Ac-[dR][Pen]NT[Trp(7-(3-AcNH-Ph))]K(Ac)[Pen][AEF][2Nal(6-OH)][Thp]EN[3Pal][Sar]-NH2 (disulfide 2-7 (inferred)) [SEQ ID NO: 287]	< 10
B2	< 10
Ac-[Pen]NT[Trp(7-Me)]K(Ac)[Pen][AEF][2Nal(6-OH)][Thp]EN[3Pal][Sar]-NH2 (disulfide 1-6 (inferred)) [SEQ ID NO: 428]	< 10
Ac-[dR][Pen]NT[Trp(7-Me)]K(Ac)[Pen][AEF][2Nal(6-OH)][Thp]EN[3Pal][Sar]-NH2 (disulfide 2-7 (inferred)) [SEQ ID NO: 442]	< 10
